The text below walks through data of EP1902729A1.

In this test the target is HIF2α protein. Nature of the test: cell-based or functional assay.

“Int6-ΔC (mutant in which the Int6 PINT (PCI) domain has been deleted)” had an expression and transcriptional activity of HIF2α of 2 fold.
